1 substance from article PMC6854463 can be followed below.

For this assay, the target named is MPER-TM2 (gp41 residues 630-711, containing the complete TM region) (HIV-1). The assay is described as follows: not stated; MPER-TM2 solubilized in a buffer containing β-D-octyl glucoside (β-OG); oligomeric state (Figure S5B).

In turn, “MPER-TM2 (gp41 residues 630-711, containing the complete TM region) (domain or fragment)” registered a stoichiometry N of 3.

The stoichiometry N is the number of molecules, sites or subunits per partner or assembly.
